This passage reports Kd results from PMC10786891, “Massively parallel profiling of RNA-targeting CRISPR-Cas13d”.

T1: EsCas13d, nuclease-dead (Eubacterium siraeum, UniProt B0MS50, R295A;H300A;R849A;H854A)
T1 sequence: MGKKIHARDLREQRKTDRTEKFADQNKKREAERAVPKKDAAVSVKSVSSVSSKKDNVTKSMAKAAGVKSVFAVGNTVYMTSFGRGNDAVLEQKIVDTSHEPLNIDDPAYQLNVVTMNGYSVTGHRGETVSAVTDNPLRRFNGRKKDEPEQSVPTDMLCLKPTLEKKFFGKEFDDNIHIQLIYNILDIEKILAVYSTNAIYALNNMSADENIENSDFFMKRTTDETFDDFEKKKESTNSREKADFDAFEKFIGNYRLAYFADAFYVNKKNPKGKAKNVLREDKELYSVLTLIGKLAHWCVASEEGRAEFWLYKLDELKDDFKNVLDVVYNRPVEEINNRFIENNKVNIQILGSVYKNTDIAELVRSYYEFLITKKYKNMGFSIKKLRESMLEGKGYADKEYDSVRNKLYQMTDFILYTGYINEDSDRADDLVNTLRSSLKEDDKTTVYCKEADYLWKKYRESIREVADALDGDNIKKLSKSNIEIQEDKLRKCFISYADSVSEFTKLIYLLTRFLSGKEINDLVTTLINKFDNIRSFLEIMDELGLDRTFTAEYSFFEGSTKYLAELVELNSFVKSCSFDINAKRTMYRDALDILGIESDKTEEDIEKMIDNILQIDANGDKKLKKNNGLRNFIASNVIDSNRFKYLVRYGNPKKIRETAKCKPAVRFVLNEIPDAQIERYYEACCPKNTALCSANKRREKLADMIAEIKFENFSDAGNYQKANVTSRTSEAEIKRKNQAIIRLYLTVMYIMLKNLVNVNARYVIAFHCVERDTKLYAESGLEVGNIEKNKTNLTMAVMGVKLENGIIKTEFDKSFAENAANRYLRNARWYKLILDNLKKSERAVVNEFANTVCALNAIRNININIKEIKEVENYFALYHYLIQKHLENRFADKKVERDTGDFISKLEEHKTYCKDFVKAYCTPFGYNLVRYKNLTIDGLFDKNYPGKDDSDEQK

B1: target 1 C7U,G17C (mixed)
RNA 1: CACCCGUGCAAAAAUGCAGGGGUCUAAAACUGAGCGGAUAACCUCUCUAUGG
RNA 2: GGGAAUGGAUCCACAUCUACGAAUUCGUACCAUACAGAGGUUAUUCGCUCACCGAGAUCGGAAGAGCACACGU
B2: target 1 insC 3' of 22,insG 3' of 6 (mixed)
RNA 1: CACCCGUGCAAAAAUGCAGGGGUCUAAAACUGAGCGGAUAACCUCUCUAUGG
RNA 2: GGGAAUGGAUCCACAUCUACGAAUUCGUACCCAUAGAGAGGUUAUCCGGCUCACCGAGAUCGGAAGAGCACACGU
B3: target 1 insC 3' of 18,insG 3' of 2 (mixed)
RNA 1: CACCCGUGCAAAAAUGCAGGGGUCUAAAACUGAGCGGAUAACCUCUCUAUGG
RNA 2: GGGAAUGGAUCCACAUCUACGAAUUCGUACCAUACGAGAGGUUAUCCGCUCGACCGAGAUCGGAAGAGCACACGU
B4: target 1 insC 3' of 5 (mixed)
RNA 1: CACCCGUGCAAAAAUGCAGGGGUCUAAAACUGAGCGGAUAACCUCUCUAUGG
RNA 2: GGGAAUGGAUCCACAUCUACGAAUUCGUACCAUAGAGAGGUUAUCCGCCUCACCGAGAUCGGAAGAGCACACGU
B5: target 1 insC 3' of 16,insA 3' of 7 (mixed)
RNA 1: CACCCGUGCAAAAAUGCAGGGGUCUAAAACUGAGCGGAUAACCUCUCUAUGG
RNA 2: GGGAAUGGAUCCACAUCUACGAAUUCGUACCAUAGACGAGGUUAUCACGCUCACCGAGAUCGGAAGAGCACACGU
B6: target 1 insA 3' of 10,insC 3' of 8 (mixed)
RNA 1: CACCCGUGCAAAAAUGCAGGGGUCUAAAACUGAGCGGAUAACCUCUCUAUGG
RNA 2: GGGAAUGGAUCCACAUCUACGAAUUCGUACCAUAGAGAGGUUAAUCCCGCUCACCGAGAUCGGAAGAGCACACGU
B7: target 1 C4G,C7G (mixed)
RNA 1: CACCCGUGCAAAAAUGCAGGGGUCUAAAACUGAGCGGAUAACCUCUCUAUGG
RNA 2: GGGAAUGGAUCCACAUCUACGAAUUCGUACCAUAGAGAGGUUAUGCGGUCACCGAGAUCGGAAGAGCACACGU
B8: target 1 complement block 4-9 (mixed)
RNA 1: CACCCGUGCAAAAAUGCAGGGGUCUAAAACUGAGCGGAUAACCUCUCUAUGG
RNA 2: GGGAAUGGAUCCACAUCUACGAAUUCGUACCAUAGAGAGGUUUAGGCGUCACCGAGAUCGGAAGAGCACACGU
B9: target 1 insC 3' of 15,insC 3' of 12 (mixed)
RNA 1: CACCCGUGCAAAAAUGCAGGGGUCUAAAACUGAGCGGAUAACCUCUCUAUGG
RNA 2: GGGAAUGGAUCCACAUCUACGAAUUCGUACCAUAGAGCAGGCUUAUCCGCUCACCGAGAUCGGAAGAGCACACGU
B10: target 1 insC 3' of 15,insC 3' of 15 (mixed)
RNA 1: CACCCGUGCAAAAAUGCAGGGGUCUAAAACUGAGCGGAUAACCUCUCUAUGG
RNA 2: GGGAAUGGAUCCACAUCUACGAAUUCGUACCAUAGAGCCAGGUUAUCCGCUCACCGAGAUCGGAAGAGCACACGU
B11: target 1 insU 3' of 18,insG 3' of 4 (mixed)
RNA 1: CACCCGUGCAAAAAUGCAGGGGUCUAAAACUGAGCGGAUAACCUCUCUAUGG
RNA 2: GGGAAUGGAUCCACAUCUACGAAUUCGUACCAUAUGAGAGGUUAUCCGCGUCACCGAGAUCGGAAGAGCACACGU
B12: target 1 G5A,C7G (mixed)
RNA 1: CACCCGUGCAAAAAUGCAGGGGUCUAAAACUGAGCGGAUAACCUCUCUAUGG
RNA 2: GGGAAUGGAUCCACAUCUACGAAUUCGUACCAUAGAGAGGUUAUGCACUCACCGAGAUCGGAAGAGCACACGU
B13: target 1 insC 3' of 17,insA 3' of 15 (mixed)
RNA 1: CACCCGUGCAAAAAUGCAGGGGUCUAAAACUGAGCGGAUAACCUCUCUAUGG
RNA 2: GGGAAUGGAUCCACAUCUACGAAUUCGUACCAUAGCAGAAGGUUAUCCGCUCACCGAGAUCGGAAGAGCACACGU
B14: target 1 A1G,U19G (mixed)
RNA 1: CACCCGUGCAAAAAUGCAGGGGUCUAAAACUGAGCGGAUAACCUCUCUAUGG
RNA 2: GGGAAUGGAUCCACAUCUACGAAUUCGUACCAGAGAGAGGUUAUCCGCUCGCCGAGAUCGGAAGAGCACACGU
B15: target 1 insG 3' of 14,insA 3' of 6 (mixed)
RNA 1: CACCCGUGCAAAAAUGCAGGGGUCUAAAACUGAGCGGAUAACCUCUCUAUGG
RNA 2: GGGAAUGGAUCCACAUCUACGAAUUCGUACCAUAGAGAGGGUUAUCCAGCUCACCGAGAUCGGAAGAGCACACGU
B16: target 1 insU 3' of 15,insA 3' of 15 (mixed)
RNA 1: CACCCGUGCAAAAAUGCAGGGGUCUAAAACUGAGCGGAUAACCUCUCUAUGG
RNA 2: GGGAAUGGAUCCACAUCUACGAAUUCGUACCAUAGAGUAAGGUUAUCCGCUCACCGAGAUCGGAAGAGCACACGU
B17: target 1 insA 3' of 19,insC 3' of 9 (mixed)
RNA 1: CACCCGUGCAAAAAUGCAGGGGUCUAAAACUGAGCGGAUAACCUCUCUAUGG
RNA 2: GGGAAUGGAUCCACAUCUACGAAUUCGUACCAUAAGAGAGGUUACUCCGCUCACCGAGAUCGGAAGAGCACACGU
B18: target 1 insC 3' of 13,insA 3' of 12 (mixed)
RNA 1: CACCCGUGCAAAAAUGCAGGGGUCUAAAACUGAGCGGAUAACCUCUCUAUGG
RNA 2: GGGAAUGGAUCCACAUCUACGAAUUCGUACCAUAGAGAGCGAUUAUCCGCUCACCGAGAUCGGAAGAGCACACGU
B19: target 1 C2U,C4G (mixed)
RNA 1: CACCCGUGCAAAAAUGCAGGGGUCUAAAACUGAGCGGAUAACCUCUCUAUGG
RNA 2: GGGAAUGGAUCCACAUCUACGAAUUCGUACCAUAGAGAGGUUAUCCGGUUACCGAGAUCGGAAGAGCACACGU
B20: target 1 del9,del11 (mixed)
RNA 1: CACCCGUGCAAAAAUGCAGGGGUCUAAAACUGAGCGGAUAACCUCUCUAUGG
RNA 2: GGGAAUGGAUCCACAUCUACGAAUUCGUACCAUAGAGAGGUUCCGCUCACCGAGAUCGGAAGAGCACACGU
B21: target 1 insC 3' of 13,insA 3' of 7 (mixed)
RNA 1: CACCCGUGCAAAAAUGCAGGGGUCUAAAACUGAGCGGAUAACCUCUCUAUGG
RNA 2: GGGAAUGGAUCCACAUCUACGAAUUCGUACCAUAGAGAGCGUUAUCACGCUCACCGAGAUCGGAAGAGCACACGU
B22: target 1 insU 3' of 21,insU 3' of 9 (mixed)
RNA 1: CACCCGUGCAAAAAUGCAGGGGUCUAAAACUGAGCGGAUAACCUCUCUAUGG
RNA 2: GGGAAUGGAUCCACAUCUACGAAUUCGUACCUAUAGAGAGGUUAUUCCGCUCACCGAGAUCGGAAGAGCACACGU
B23: target 1 insU 3' of 21,insA 3' of 3 (mixed)
RNA 1: CACCCGUGCAAAAAUGCAGGGGUCUAAAACUGAGCGGAUAACCUCUCUAUGG
RNA 2: GGGAAUGGAUCCACAUCUACGAAUUCGUACCUAUAGAGAGGUUAUCCGCUACACCGAGAUCGGAAGAGCACACGU

The data set deals with T1, EsCas13d, nuclease-dead. Put plainly: crRNA (strand 1, pre-loaded); Mg2+; 40 mM Tris-HCl pH 7.5, 150 mM NaCl, 6 mM MgCl2, 1 mM DTT, 0.1% Tween-20, 0.2 mg/ml BSA; 25 C; 10 min per concentration, then washed. The settings on record: tags: His6-TwinStrep-SUMO cleaved; N-terminal SNAP kept (SNAP-Surface 488); label: 3' end held by stalled T7 RNA polymerase.
With B1, binding was put at a Kd of 77 ± 35 nM.
Turning to B2, binding was characterised by a dissociation constant (Kd) of 25.2 ± 3.3 nM.
As for B3, binding was characterised by a dissociation constant (Kd) of 38.9 ± 2.9 nM.
On to B4, for which the equilibrium dissociation constant (Kd) (as a rule, a measure of binding affinity in units of concentration) came out at 9.6 ± 0.7 nM.
In the case of B5 it was 63 ± 15 nM; in that of B6, 15.4 ± 0.8 nM; in that of B7, 9.7 ± 0.5 nM.
In turn, B8 yielded a Kd of 7.99 ± 0.28 nM.
Consider B9, for which the Kd was determined as 60 ± 13 nM. Against the preceding molecule, the Kd is about 7.5-fold higher.
Take B10: the Kd came out at 26.6 ± 1.5 nM. This Kd lies about 2.3-fold lower than the previous one.
B11 returned a dissociation constant (Kd) of 20 ± 1.2 nM.
In the case of B12 it was 11.8 ± 0.8 nM.
In the case of B13 it was 28 ± 4 nM; in that of B14, 51 ± 6 nM; in that of B15, 14.6 ± 1.3 nM.
Turning to B16, binding was put at a Kd of 19 ± 1.7 nM.
With B17, binding was characterised by a dissociation constant (Kd) of 55 ± 4 nM. Against the preceding molecule, the Kd is about 2.9-fold higher.
For B18, binding was characterised by a dissociation constant (Kd) of 15.7 ± 1 nM.
For the molecule B19, binding was characterised by a dissociation constant (Kd) of 5.1 ± 0.5 nM.
In the case of B20 it was 13.2 ± 1 nM; in that of B21, 14.2 ± 0.9 nM.
The molecule B22 returned a Kd of 37 ± 4 nM.
In the case of B23 it was 18.1 ± 0.9 nM.
